Results on 15 molecules are retold here after article PMC12901311, “HEXIM1 inter-monomer autoinhibition governs 7SK RNA binding specificity and P-TEFb inactivation” (Nature Communications, 2024).

The chains are these.
T1: Hexim1-A12m (human) (UniProt O94992)
T1 sequence: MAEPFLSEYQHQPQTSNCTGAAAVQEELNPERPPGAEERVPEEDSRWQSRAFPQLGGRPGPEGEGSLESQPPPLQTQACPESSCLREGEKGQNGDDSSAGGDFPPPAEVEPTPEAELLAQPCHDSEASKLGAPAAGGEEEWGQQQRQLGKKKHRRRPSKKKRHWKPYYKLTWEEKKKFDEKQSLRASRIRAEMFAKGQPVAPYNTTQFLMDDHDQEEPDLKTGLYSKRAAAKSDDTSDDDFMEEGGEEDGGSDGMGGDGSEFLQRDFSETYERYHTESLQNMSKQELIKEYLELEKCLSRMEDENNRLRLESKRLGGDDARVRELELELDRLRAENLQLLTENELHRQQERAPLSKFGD

T2: Hexim1-A3m (human) (UniProt O94992)
T2 sequence: T1 sequence

T3: Hexim1 BRARM1 (human, UniProt O94992 141-159)
T3 chain: WGQQQRQLGKKKHRRRPSK

B1: Full-length human Hexim1 protein (aa 1-359) (natural protein)
chain: GMAEPFLSEYQHQPQTSNCTGAAAVQEELNPERPPGAEERVPEEDSRWQSRAFPQLGGRPGPEGEGSLESQPPPLQTQACPESSCLREGEKGQNGDDSSAGGDFPPPAEVEPTPEAELLAQPCHDSEASKLGAPAAGGEEEWGQQQRQLGKKKHRRRPSKKKRHWKPYYKLTWEEKKKFDEKQSLRASRIRAEMFAKGQPVAPYNTTQFLMDDHDQEEPDLKTGLYSKRAAAKSDDTSDDDFMEEGGEEDGGSDGMGGDGSEFLQRDFSETYERYHTESLQNMSKQELIKEYLELEKCLSRMEDENNRLRLESKRLGGDDARVRELELELDRLRAENLQLLTENELHRQQERAPLSKFGD
notes: non-native glycine that remains at the N-terminus after TEV protease cleavage; Hexim1, human, aa 1-359; also called Hexim1 dimer; full-length Hexim1; not shown: His6, N-terminal, cleaved; MBP, N-terminal, cleaved
B2: Hexim1 L-AR-CC dimeric protein (domain or fragment, human, UniProt O94992 171-359, looked up)
chain: TWEEKKKFDEKQSLRASRIRAEMFAKGQPVAPYNTTQFLMDDHDQEEPDLKTGLYSKRAAAKSDDTSDDDFMEEGGEEDGGSDGMGGDGSEFLQRDFSETYERYHTESLQNMSKQELIKEYLELEKCLSRMEDENNRLRLESKRLGGDDARVRELELELDRLRAENLQLLTENELHRQQERAPLSKFGD
notes: Hexim1, human; linker (L), Acidic Region (AR) and coiled-coil domain (CC, 254-359); source: E. coli BL21-GOLD(DE3), purified
B3: Monomeric Hexim1 BR-L-AR (aa 142-253) (domain or fragment, human)
chain: GGQQQRQLGKKKHRRRPSKKKRHWKPYYKLTWEEKKKFDEKQSLRASRIRAEMFAKGQPVAPYNTTQFLMDDHDQEEPDLKTGLYSKRAAAKSDDTSDDDFMEEGGEEDGGSD
notes: non-native glycine that remains at the N-terminus after TEV protease cleavage; Hexim1, human, residues 142-253: Basic Region, linker with PYNT motif, Acidic Region; 15N-labelled as the reporter in the PRE NMR experiments; unlabelled in NativePAGE and mass photometry; also called Hexim1 central region construct; not shown: His6, N-terminal, cleaved; MBP, N-terminal, cleaved
B4: Hexim1 BR-L-AR(S183C^MTSL) (domain or fragment, human)
chain: B3 chain with S43C
modifications: MTSL nitroxide spin label on C183
notes: non-native glycine that remains at the N-terminus of BR-L-AR after TEV protease cleavage; Hexim1, human, residues 142-253 (BR-L-AR) with S183C; 15N-labelled; not shown: His6, N-terminal, cleaved; MBP, N-terminal, cleaved
B5: Hexim1 BR-L-AR(A201C^MTSL) (domain or fragment, human)
chain: B3 chain with A61C
modifications: MTSL nitroxide spin label on C201
notes: non-native glycine that remains at the N-terminus of BR-L-AR after TEV protease cleavage; Hexim1, human, residues 142-253 (BR-L-AR) with A201C; 15N-labelled; not shown: His6, N-terminal, cleaved; MBP, N-terminal, cleaved
B6: Hexim1 BR-L-AR(S237C^MTSL) (domain or fragment, human)
chain: B3 chain with S97C
modifications: MTSL nitroxide spin label on C237
notes: non-native glycine that remains at the N-terminus of BR-L-AR after TEV protease cleavage; Hexim1, human, residues 142-253 (BR-L-AR) with S237C; not shown: His6, N-terminal, cleaved; MBP, N-terminal, cleaved
B7: Hexim1 BR-L-AR(S233C^MTSL) (domain or fragment, human)
chain: B3 chain with S93C
modifications: MTSL nitroxide spin label on C233
notes: non-native glycine that remains at the N-terminus of BR-L-AR after TEV protease cleavage; Hexim1, human, residues 142-253 (BR-L-AR) with S233C; 14N in the inter-only experiment; not shown: His6, N-terminal, cleaved; MBP, N-terminal, cleaved
B8: Hexim1 BR-L-AR(S226C^MTSL) (domain or fragment, human)
chain: B3 chain with S86C
modifications: MTSL nitroxide spin label on C226
notes: non-native glycine that remains at the N-terminus of BR-L-AR after TEV protease cleavage; Hexim1, human, residues 142-253 (BR-L-AR) with S226C; not shown: His6, N-terminal, cleaved; MBP, N-terminal, cleaved

Series [1] addresses T1, Hexim1-A12m (human). Put plainly: ITC. The conditions noted are these: ITC: 20 mM HEPES pH 7.5, 150 mM KCl, 1 mM TCEP, 295 K; NMR: 50 mM Na phosphate pH 6.2, 150 mM KCl, 0.02% NaN3, 5% D2O, 298 K; EMSA: binding buffer (20 mM HEPES …).
For series [2], the target named is T2, Hexim1-A3m (human). Put plainly: ITC. The conditions noted are these: N=0.34; ITC: 20 mM HEPES pH 7.5, 150 mM KCl, 1 mM TCEP, 295 K; NMR: 50 mM Na phosphate pH 6.2, 150 mM KCl, 0.02% NaN3, 5% D2O, 298 K; EMSA: binding buffer (20 mM HEPES …).
In series [3] the target is T4, Hexim1 full-length (human, UniProt O94992 1-359). Put plainly: ITC. The conditions noted are these: N=1.40; protein in syringe (inferred from N); ITC: 20 mM HEPES pH 7.5, 150 mM KCl, 1 mM TCEP, 295 K; NMR: 50 mM Na phosphate pH 6.2, 150 mM KCl, 0.02% NaN3, 5% D2O, 298 K; EMSA: binding buffer (20 mM HEPES …).
The target of series [4] is T4, Hexim1 full-length. Briefly: ITC; N=0.76; ITC: 20 mM HEPES pH 7.5, 150 mM KCl, 1 mM TCEP, 295 K; NMR: 50 mM Na phosphate pH 6.2, 150 mM KCl, 0.02% NaN3, 5% D2O, 298 K; EMSA: binding buffer (20 mM HEPES). The note with it: protein: recombinant; tags: MBP-His6 removed by TEV; non-native N-terminal G remains; chain copies: 2; hairpin with U40U41 and U63 bulges.
In series [5] the target is Hexim1 NBLA (N-BR-L-AR) (human, UniProt O94992 1-253). Put plainly: ITC; N=0.81; ITC: 20 mM HEPES pH 7.5, 150 mM KCl, 1 mM TCEP, 295 K; NMR: 50 mM Na phosphate pH 6.2, 150 mM KCl, 0.02% NaN3, 5% D2O, 298 K; EMSA: binding buffer (20 mM HEPES). The conditions noted are these: protein: recombinant; hairpin with U40U41 and U63 bulges.
The target of series [6] is T4, Hexim1 full-length. Briefly: ITC; N=0.47; ITC: 20 mM HEPES pH 7.5, 150 mM KCl, 1 mM TCEP, 295 K; NMR: 50 mM Na phosphate pH 6.2, 150 mM KCl, 0.02% NaN3, 5% D2O, 298 K; EMSA: binding buffer (20 mM HEPES). The conditions noted are these: protein: recombinant; tags: MBP-His6 removed by TEV; non-native N-terminal G remains; chain copies: 2; hairpin.
Series [7] deals with the molecule itself. Put plainly: mass photometry; Refeyn TwoMP; freshly purified proteins alone or mixed as complexes, drop-diluted into phosphate-buffered saline pH 7.4 to 40 nM final total protein.
Series [8] addresses Hexim1 BR-L-AR (human, UniProt O94992 142-253). Put plainly: NMR; ITC: 20 mM HEPES pH 7.5, 150 mM KCl, 1 mM TCEP, 295 K; NMR: 50 mM Na phosphate pH 6.2, 150 mM KCl, 0.02% NaN3, 5% D2O, 298 K; EMSA: binding buffer (20 mM HEPES). The conditions noted are these: protein: recombinant; tags: MBP-His6 removed by TEV; non-native N-terminal G; hairpin.
Series [9] deals with T3, Hexim1 BRARM1. Put plainly: NMR; Site2 shifted, not Site4; ITC: 20 mM HEPES pH 7.5, 150 mM KCl, 1 mM TCEP, 295 K; NMR: 50 mM Na phosphate pH 6.2, 150 mM KCl, 0.02% NaN3, 5% D2O, 298 K; EMSA: binding buffer (20 mM HEPES). The note with it: protein: recombinant; tags: GB1-His6 removed by TEV; non-native N-terminal G; hairpin.
In series [10] the target is T4, Hexim1 full-length. Put plainly: ITC; N=0.49; ITC: 20 mM HEPES pH 7.5, 150 mM KCl, 1 mM TCEP, 295 K; NMR: 50 mM Na phosphate pH 6.2, 150 mM KCl, 0.02% NaN3, 5% D2O, 298 K; EMSA: binding buffer (20 mM HEPES). The conditions noted are these: protein: recombinant; tags: MBP-His6 removed by TEV; non-native N-terminal G remains; chain copies: 2; hairpin.
Series [11] concerns the molecule itself. Put plainly: paramagnetic relaxation enhancement (PRE) NMR; total interaction experiment: 15N-labelled and MTSL-tagged BR-L-AR alone, captures both intra- and inter-monomer contacts; 15N-1H HSQC, 290.15 K, 600 MHz; 50 mM sodium phosphate pH 6.2, 150 mM KCl.
Series [12] has as its target B3. Briefly: paramagnetic relaxation enhancement (PRE) NMR; inter-only experiment: 1:1 mixture of 15N-labelled untagged BR-L-AR (reporter) with 14N-labelled MTSL-tagged BR-L-AR (broadener); 15N-1H HSQC, 290.15 K, 600 MHz; 50 mM sodium phosphate pH 6.2, 150 mM KCl. The conditions noted are these: both partners purified.

Residue numbers refer to the chain shown, from its start. Names may count otherwise. “And” between values parts separate entries of the source, which are not always exact repeats. Identical values can stand only once.

As to “GGAUGUGAGGGCGAUCUGGCUUCGGCCUUCCUCCCUCACCGCUCCA [7SK SL1-p]”, in series [1], the binding signal (fold tighter than wild-type Hexim1) amounted to 6. The equilibrium dissociation constant (Kd) in [2] turned out to be 276 nM.
With 7SK SL1-d(api), the Kd in [3] worked out at 96 nM.
In the case of GGCCAUUGAUCGCCUUCGGGCUGAUCUGGCC (structured_RNA) [7SK SL1-dI], the Kd in series [4] is 780 ± 25 nM; in [5], 83 ± 28 nM.
Regarding GGCUGUCACCUUCGGGCUAGGCGGCC (structured_RNA) [7SK SL1-dII], in [6], the Kd came to 1220 ± 129 nM.
For the molecule B1, in [7], the “stoichiometry N” value came to 2.
Still for that read-out and setting: the figure for B2 is 2.
In the case of GGCGAUCUGGCUGCGACAUCUGUCACCCCAUUGAUCGCC (structured_RNA) [7SK SL1alt (circular), loop version not stated], the binding result in series [8] is listed as “binds”.
Regarding GGCUGCGACAUCUGUCACCUUCGGGCUAGGCGGGUGUCCCC (structured_RNA) [7SK SL1-dIIm], the binding result in [9] is recorded as “binds”.
Take GGAUGUGAGGGCGAUCUGGCUUCGGCCUUCCUCCCUCACCGCUCCA (structured_RNA) [7SK SL1-p]: the Kd in series [10] was found to be 2210 ± 197 nM.
In the case of B3, in [7], the “stoichiometry N” value is 3 and 4.
For B4, the binding result in [11] is on record as “binds”.
On to B5, for which the binding result in [11] was “binds”.
As to B6, in series [12], the binding result is reported as “binds”.
On the same count and under the same terms, as for B7, the entry is “binds”.
With B8, the binding result in [12] and in series [11] was “binds” throughout.
